What was measured:
[1] = molecular target: T1, full-length human Nectin4 with C-terminal flag and Myc tags on CHO cells (human, UniProt Q96NY8 32-510); assay: cell-based or functional assay
T1 sequence (looked up): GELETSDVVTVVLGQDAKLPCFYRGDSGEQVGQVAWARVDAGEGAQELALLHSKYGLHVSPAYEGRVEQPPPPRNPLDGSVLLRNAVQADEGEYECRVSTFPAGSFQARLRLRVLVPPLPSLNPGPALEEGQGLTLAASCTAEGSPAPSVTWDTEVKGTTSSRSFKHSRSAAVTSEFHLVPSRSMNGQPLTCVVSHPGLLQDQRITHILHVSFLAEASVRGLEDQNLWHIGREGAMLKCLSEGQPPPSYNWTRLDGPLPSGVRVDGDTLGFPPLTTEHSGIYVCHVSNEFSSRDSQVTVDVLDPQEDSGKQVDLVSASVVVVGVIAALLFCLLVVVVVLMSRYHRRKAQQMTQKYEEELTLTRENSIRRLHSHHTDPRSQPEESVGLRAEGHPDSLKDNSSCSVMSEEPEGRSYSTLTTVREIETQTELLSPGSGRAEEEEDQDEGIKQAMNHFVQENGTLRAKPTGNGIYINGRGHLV

mouse nectin4 protein = molecular target: T2, mouse nectin4 protein (mouse, UniProt Q8R007 31-347, limits assumed); assay: ELISA, coated mouse nectin4, IgG titrated, anti-hFc HRP
T2 sequence (looked up): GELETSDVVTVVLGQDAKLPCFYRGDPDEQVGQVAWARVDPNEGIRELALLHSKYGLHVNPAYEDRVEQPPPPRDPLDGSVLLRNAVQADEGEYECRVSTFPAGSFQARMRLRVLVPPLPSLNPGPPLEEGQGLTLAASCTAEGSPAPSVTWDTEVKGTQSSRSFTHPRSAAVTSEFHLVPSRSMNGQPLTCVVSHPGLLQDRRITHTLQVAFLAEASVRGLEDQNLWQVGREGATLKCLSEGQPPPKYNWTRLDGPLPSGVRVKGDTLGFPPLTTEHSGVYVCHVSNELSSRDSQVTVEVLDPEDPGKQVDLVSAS

monkey nectin4 protein = monkey nectin4 protein (monkey); assay: ELISA, coated monkey nectin4, IgG titrated, anti-hFc HRP
[2] = molecular target: T3, human Nectin4-HIS tagged recombinant protein (human, UniProt Q96NY8 32-349); assay: ELISA, coated human Nectin4-HIS, IgG titrated, anti-hFc HRP
T3 construct: also called hNectin4-HIS; Nectin4 HIS tagged protein; not shown: HIS tag
T3 sequence (looked up): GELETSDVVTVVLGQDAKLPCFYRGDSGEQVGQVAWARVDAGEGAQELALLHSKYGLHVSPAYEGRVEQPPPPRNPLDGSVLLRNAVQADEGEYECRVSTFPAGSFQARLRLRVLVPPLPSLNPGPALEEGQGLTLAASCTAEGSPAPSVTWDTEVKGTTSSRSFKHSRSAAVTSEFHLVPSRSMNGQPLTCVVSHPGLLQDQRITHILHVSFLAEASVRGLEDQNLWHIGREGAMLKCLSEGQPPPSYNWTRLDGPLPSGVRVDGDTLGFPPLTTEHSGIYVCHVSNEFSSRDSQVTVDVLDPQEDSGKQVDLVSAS
Method: An ELISA assay was developed to determine the EC₅₀ of exemplary anti-Nectin4 IgG antibodies. Briefly, 384 well plate was immobilized with human Nectin4-HIS tagged recombinant protein at final concentration of 2 ug/mL in 1×PBS in total volume of 25 uL per well. The plate was incubated overnight at 4° C. followed by blocking with 80 uL of superblock per well for 1 hour. Titration of purified anti-Nectin4 IgG starting at 200 nM 2-fold serial dilution, 25 uL was added to human Nectin4 immobilized wells and incubated for 1 hour with shaking. The Nectin4 binding was detected by adding 25 uL of anti-hFc HRP diluted at 1:5000 in 1×PBST. In between each step, the plate was washed 3 times with 1×PBST in a plate washer. The plate was then developed with 20 ul of TMB substrate for 5 mins and stopped by adding 20 ul of 2N sulfuric acid. The plate was read at OD450 nm Biotek plate reader and then plotted in Prism 8.1 software.

[3] = molecular target: T3, human Nectin4-HIS tagged recombinant …; assay: ELISA, coated human Nectin4-HIS, antibody titrated, anti-hFc HRP
[4] = molecular target: T1, full-length human Nectin4 with …; assay: flow cytometry, IgG on Nectin4/CHO cells, anti-hFc Alexa fluor 647
Method: 200 nM of purified anti-Nectin4 IgG antibodies were diluted in full medium and incubated with Nectin4/CHO and CHO cells in 96 wells plate on ice for 1 hour. Cells were spun down at 1200 rpm for 5 minutes at 4° C. to remove primary antibodies. Cells were then washed once with 200 uL of full medium per well. Samples were detected with anti-hFc Alexa fluor 647 by adding 100 uL of diluted secondary antibody and incubated at 4° C. for 30 minutes in the dark. Samples were spun down at 1200 rpm for 5 minutes at 4° C. and washed twice with 200 uL of 1×PBS per well. Reconstituted samples in 200 uL of 1×PBS and read on Attune NxT cytometer. Analysis was done by Attune NxT software plotting the overlay histogram of […] proteins binding onto both negative and target cell lines.

[5] = molecular target: T3, human Nectin4-HIS tagged recombinant …; assay: SPR Biacore T200, IgG captured on Protein A chip, hNectin4-HIS injected
Method: Kinetic analysis of anti-Nectin4 IgG has been assessed by the SPR technology with Biacore T200. The assay was run with Biacore T200 control software version 2.0. For each cycle, 1 ug/mL of anti-hNectin4-IgG was captured for 60 seconds at flow rate of 10 ul/min on flow cell 2 in 1×HBSP buffer on Protein A sensor chip. 2-fold serial hNectin4-HIS tagged protein was injected onto both reference flow cell 1 and anti-Nectin4 IgG captured flow cell 2 for 150 seconds at flow rate of 30 ul/mins followed by wash for 300 seconds. The flow cells were then regenerated with Glycine pH2 for 60 seconds at flow rate of 30 ul/mins. 8 concentration points from 100-0 nM was assayed per anti-Nectin4 IgG in a 96 well plate. The kinetics of Anti-Nectin4 IgG binding to Nectin4 protein was analyzed with Biacore T200 evaluation software version 3.0. The specific binding response unit was derived from subtraction of binding to reference flow cell 1 from antibody captured flow cell 2.

CD3 on Jurkat cells [6] = molecular target: T4, CD3 on Jurkat cells (UniProt P07766 23-207, limits assumed); assay: cell-based or functional assay
CD3 on Jurkat cells [7] = molecular target: T4, CD3 on Jurkat cells; assay: flow cytometry on Jurkat cells
Method: Jurkat cells were plated at 100,000 cells/well in a 96-well plate with 50 μL of full media. Anti-Nectin4/CD3 antibodies were 3-fold serial titrated from 20 nM. 50 μL was added to the cells and incubated for 1 hours at room temperature with shaking. Samples were washed one time with flow buffer. […] Samples were washed once with flow buffer. Samples were stained with 100 uL Zombie Fixable Viability Dyes at 1:800 dilution per well and incubated in dark at room temperature for 30 mins. Samples were spun down at 1300 rpm for 5 minutes and washed once with 200 uL flow buffer. Reconstituted samples in 200 uL of flow buffer and read on Attune NxT cytometer. EC50 values for CD3 binding were calculated using Prism 8.1 software.

[8] = molecular target: T1, full-length human Nectin4 with …; assay: flow cytometry on CHO/Nectin4 cells
Method: Nectin4/CHO Nectin4 cells were plated at 100,000 cells/well in a 96-well plate in 50 μL of full media. Cells were rested 1 hour at 37° C. Anti-Nectin4/CD3 was 3-fold serial titrated from 50 nM. 50 μL was added to the cells and incubated for 1 hours with shaking. Samples were washed one time with flow buffer. […] Samples were washed once with flow buffer. Samples were stained with 100 uL Zombie Fixable Viability Dyes (1:800 dilution) per well and incubated in dark at room temperature for 30 mins. Samples were spun down at 1200 rpm for 5 minutes and washed once with 200 uL flow buffer. Reconstituted samples in 200 uL of flow buffer and read on Attune NxT cytometer. EC₅₀ values for Nectin4 Binding were determined using Prism software.

[9] = molecular target: T5, human CD3E HIS tagged protein (human, UniProt P07766 23-126); assay: SPR Biacore T200, bispecific captured on Protein A chip, CD3E-HIS injected
T5 construct: not shown: HIS tag
Method: (§1) The assay was run with Biacore T200 control software version 2.0. For each cycle, 1 ug/mL of anti-hNectin4/CD3 antibody was captured for 60 seconds at flow rate of 10 ul/min on flow cell 2 in 1×HBSP buffer on Protein A sensor chip. 2-fold serial diluted CD3E-HIS or hNectin4-HIS tagged protein was injected onto both reference flow cell 1 and anti-Nectin4/CD3 bispecific captured flow cell 2 for 150 seconds at flow rate of 30 ul/mins followed by wash for 300 seconds. The flow cells were then regenerated with Glycine pH2 for 60 seconds at flow rate of 30 ul/mins. 8 concentration points from 100 nM-0 nM (CD3E-HIS) or 300 nM-0 nM (Nectin4-HIS) was assayed per anti-Nectin4 IgG in a 96 well plate. The kinetics of Anti-Nectin4/CD3 bispecific binding to CD3E and Nectin4 proteins was analyzed with Biacore T200 evaluation software version 3.0. The specific binding response unit was derived from subtraction of binding to reference flow cell 1 from antibody captured flow cell 2. Table 10 below listed the kinetics results. ND means not determined. NA means data not available.

[10] = molecular target: T3, human Nectin4-HIS tagged recombinant …; assay: ELISA, coated Nectin4 HIS tagged protein, bispecific titrated, anti-Human HRP
Method: (§2) An ELISA assay was developed to determine the EC₅₀ of anti-Nectin4/CD3 bispecific antibodies. Briefly, 384 well plate was immobilized with human CD3E or Nectin4 HIS tagged protein at final concentration of 2 ug/mL in 1×PBS in total volume of 25 uL per well. The plate was incubated overnight at 4° C. followed by blocking with 80 uL of superblock per well for 1 hour. Purified anti-Nectin4/CD3 was 3-fold serial titrated from 100 nM. 25 uL was added to human Nectin4/CD3 immobilized wells and incubated for 1 hour with shaking. The CD3E or Nectin4 binding was detected by adding 25 uL of anti-Human HRP diluted at 1:10000 in 1×PBST. In between each step, the plate was washed 3 times with […] in a plate washer. The plate was then developed with 20 ul of TMB substrate for 5 mins and stopped by adding 20 ul of 2N sulfuric acid. The plate was read at OD450 nm Biotek plate reader and then plotted in Prism 8.1 software to calculate EC50.

[11] = molecular target: T3, human Nectin4-HIS tagged recombinant …; assay: SPR Biacore T200, bispecific captured on Protein A chip, hNectin4-HIS injected
Method: as §1

[12] = molecular target: T5, human CD3E HIS tagged protein; assay: ELISA, coated human CD3E HIS tagged protein, bispecific titrated, anti-Human HRP
Method: as §2

T5 sequence (P07766 23-126 limits assumed): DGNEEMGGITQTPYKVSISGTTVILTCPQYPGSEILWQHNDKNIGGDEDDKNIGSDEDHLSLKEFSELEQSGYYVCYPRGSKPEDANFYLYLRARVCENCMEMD
T4 sequence (P07766 23-207 limits assumed): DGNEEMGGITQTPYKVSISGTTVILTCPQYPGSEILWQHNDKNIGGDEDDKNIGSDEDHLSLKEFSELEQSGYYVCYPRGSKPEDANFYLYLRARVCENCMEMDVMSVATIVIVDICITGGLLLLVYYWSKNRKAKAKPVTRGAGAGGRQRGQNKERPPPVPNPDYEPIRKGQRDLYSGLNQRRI

B1: 2020EP034-B09 IgG (EP299/EP289) (antibody, V domains shown)
VH: EVQLVQSGAEVKKPGASVKVSCKASGYTFTGYYMHWVRQAPGQGLEWMGRINPNSGGTNYAQKFQGRVTMTRDTSISTAYMELSGLRSDDTAVYFCARVTYNIGWYIDYWGQGTLVTVSS
VL: QAVVTQPPSVSVAPGKTATITCGGNNIGSKGVHWYQQKPGQAPVLVIYYDTDRPSGIPERLSGSNSGNTATLTISRVEAGDEADYYCQVWDSSSDHPVFGGGTKLTVLG
notes: Human IgG1 with lambda light chain; entries without signal peptide used; also called EP034-B09, mAb
- ADCC Bioreporter assay EC50 [1]: 1.16 nM
- EC50 (mouse nectin4 protein): 0.017 nM
- EC50 (monkey nectin4 protein): 0.019 nM
- EC50 [2]: 0.018 nM
- EC50 [3]: 0.061 nM
- EC50 [4]: 0.0062 nM
- Kd [5]: 1.47 nM

B2: EP369/EP370/EP289 anti-Nectin4/CD3 bispecific antibody (bispecific antibody)
chain: not shown
heavy: EVQLVQSGAEVKKPGASVKVSCKASGYTFTGYYMHWVRQAPGQGLEWMGRINPNSGGTNYAQKFQGRVTMTRDTSISTAYMELSGLRSDDTAVYFCARVTYNIGWYIDYWGQGTLVTVSSASTKGPSVFPLAPSSKSTSGGTAALGCLVKDYFPEPVTVSWNSGALTSGVHTFPAVLQSSGLYSLSSVVTVPSSSLGTQTYICNVNHKPSNTKVDKKVEPKSCDKTHTCPPCPAPEAAGGPSVFLFPPKPKDTLMISRTPEVTCVVVDVSHEDPEVKFNWYVDGVEVHNAKTKPREEQYNSTYRVVSVLTVLHQDWLNGKEYKCKVSNKALGAPIEKTISKAKGQPREPQVCTLPPSRDELTKNQVSLSCAVKGFYPSDIAVEWESNGQPENNYKTTPPVLDSDGSFKLVSKLTVDKSRWQQGNVFSCSVMHEALHNHYTQKSLSLSPGK
light: QAVVTQPPSVSVAPGKTATITCGGNNIGSKGVHWYQQKPGQAPVLVIYYDTDRPSGIPERLSGSNSGNTATLTISRVEAGDEADYYCQVWDSSSDHPVFGGGTKLTVLGQPKANPTVTLFPPSSEELQANKATLVCLISDFYPGAVTVAWKADGSPVKAGVETTKPSKQSNNKYAASSYLSLTPEQWKSHRSYSCQVTHEGSTVEKTVAPTECS
notes: Monovalent format: anti-CD3 sp34 scFv-Fc knob (EP369), EP034-B09 heavy chain hole without ADCC (EP370), EP034-B09 light chain (EP289); also called EP369/370/289
- NFAT reporter EC50 (CD3 on Jurkat cells [6]): 0.0038 nM
- EC50 (CD3 on Jurkat cells [7]): 0.169 nM
- EC50 [8]: 0.146 nM
- Kd [9]: 2.23 nM
- koff [9]: 0.00059 s⁻¹
- kon [9]: 265000 M⁻¹ s⁻¹
- EC50 [10]: 0.019 nM
- Kd [11]: 1.22 nM
- koff [11]: 0.00012 s⁻¹
- kon [11]: 98800 M⁻¹ s⁻¹
- EC50 [12]: 0.005 nM

B3: 2020EP034-E01 IgG (EP296/EP286) (antibody, V domains shown)
VH: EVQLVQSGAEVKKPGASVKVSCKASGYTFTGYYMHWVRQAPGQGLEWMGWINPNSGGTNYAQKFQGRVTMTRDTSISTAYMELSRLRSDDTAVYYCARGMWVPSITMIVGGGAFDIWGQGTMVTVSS
VL: DVVMTQSPLSLPVTPGEPASMSCRSSESLLHRNGFNYLDWYVQRPGQSPKLLIYMGSYRASGVPDRFSGRGSGTDFALKISRVEAEDVGVYYCMQALQSPPLYTFGPGTKLEIKR
notes: Human IgG1
- ADCC Bioreporter assay EC50 [1]: 1.43 nM
- EC50 (mouse nectin4 protein): 0.037 nM
- EC50 (monkey nectin4 protein): 0.043 nM
- EC50 [2]: 0.035 nM
- EC50 [4]: 0.017 nM
- Kd [5]: 11 nM
